Measured values as given in the supplement of paper PMC10567573.

B1: CDC25A (parent)
chain: TVAGKHQDLKYISPEIMASVLNGK

Variants of: B1
Assay: protein stability index of a GFP-peptide fusion (GPS, HEK-293T) (PSI 1-6); higher = more stable
Details: c terminus: a fixed tail appended
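Further: lentivirally expressed fusions sorted by FACS into six bins by GFP to DsRed ratio, PSI derived from sequencing read proportions per bin multiplied by bin number.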

Variant | protein stability index
TVAGKHQDLKYISPEIMASVLNGV [K24V] | 2.09
TVAGKHQDLKYISPEIMASVLNGG [K24G] | 2.87
TVAGKHQDLKYISPEIMASVLNGQ [K24Q] | 3.4
TVAGKHQDLKYISPEIMASVLNGW [K24W] | 1.93
TVAGKHQDLKYISPEIMASVLNGL [K24L] | 2.01
TVAGKHQDLKYISPEIMASVLNGD [K24D] | 3.61
TVAGKHQDLKYISPEIMASVLNGT [K24T] | 2.69
TVAGKHQDLKYISPEIMASVLNGN [K24N] | 3.21
TVAGKHQDLKYISPEIMASVLNGM [K24M] | 2.36
TVAGKHQDLKYISPEIMASVLNGR [K24R] | 3.06
TVAGKHQDLKYISPEIMASVLNGS [K24S] | 2.94
TVAGKHQDLKYISPESMASVLNGK [I16S] | 3.78
TVAGKHQDLKYISPECMASVLNGK [I16C] | 3.44
TVAGKHQDLKYISPEVMASVLNGK [I16V] | 3.47
TVAGKHQDLKYISPENMASVLNGK [I16N] | 3.8
TVAGKHQDLKYISPEDMASVLNGK [I16D] | 4.25
TVAGKHQDLKYISPEYMASVLNGK [I16Y] | 2.85
TVAGKHQDLKYISPETMASVLNGK [I16T] | 3.62
TVAGKHQDLKYISPEHMASVLNGK [I16H] | 3.97
TVAGKHQDLKYISPEPMASVLNGK [I16P] | 4.45
TVAGKHQDLKYISPERMASVLNGK [I16R] | 3.73
TVAGKHQDLKYISPELMASVLNGK [I16L] | 2.86
TVCGKHQDLKYISPEIMASVLNGK [A3C] | 2.47
TVHGKHQDLKYISPEIMASVLNGK [A3H] | 2.85

Variant | protein stability index
TVLGKHQDLKYISPEIMASVLNGK [A3L] | 2.69
TVNGKHQDLKYISPEIMASVLNGK [A3N] | 2.79
TVQGKHQDLKYISPEIMASVLNGK [A3Q] | 2.7
TVGGKHQDLKYISPEIMASVLNGK [A3G] | 3.14
TVAGKHQDLKQISPEIMASVLNGK [Y11Q] | 3.47
TVAGKHQDLKHISPEIMASVLNGK [Y11H] | 3.73
TVAGKHQDLKIISPEIMASVLNGK [Y11I] | 3.52
TVAGKHQDLKPISPEIMASVLNGK [Y11P] | 3.95
TVAGKHQDKKYISPEIMASVLNGK [L9K] | 3.74
TVAGKHQDDKYISPEIMASVLNGK [L9D] | 4.09
TVAGKHQDPKYISPEIMASVLNGK [L9P] | 3.37
TVAGKHQDEKYISPEIMASVLNGK [L9E] | 3.94
TVAGKHQDTKYISPEIMASVLNGK [L9T] | 3.47
TVAGKHQDWKYISPEIMASVLNGK [L9W] | 2.81
TVAGKHQDSKYISPEIMASVLNGK [L9S] | 3.33
TVAGKHQDGKYISPEIMASVLNGK [L9G] | 3.77
TVAGKHQKLKYISPEIMASVLNGK [D8K] | 2.54
TVAGKHQHLKYISPEIMASVLNGK [D8H] | 2.51
TVAGKHQMLKYISPEIMASVLNGK [D8M] | 2.25
TVAGKHQNLKYISPEIMASVLNGK [D8N] | 2.62
TVAGKHQVLKYISPEIMASVLNGK [D8V] | 2.66
TVAGKHQILKYISPEIMASVLNGK [D8I] | 2.35
TVAGKHQYLKYISPEIMASVLNGK [D8Y] | 1.9
TVAGKHCDLKYISPEIMASVLNGK [Q7C] | 2.79

Variant | protein stability index
TVAGKHDDLKYISPEIMASVLNGK [Q7D] | 3.06
TVAGKHHDLKYISPEIMASVLNGK [Q7H] | 3.27
TVAGKHPDLKYISPEIMASVLNGK [Q7P] | 3.24
TVAGKHTDLKYISPEIMASVLNGK [Q7T] | 2.69
TVAGKHLDLKYISPEIMASVLNGK [Q7L] | 2.62
TVAGKHQDLKYIDPEIMASVLNGK [S13D] | 3.73
TVAGKHQDLKYIEPEIMASVLNGK [S13E] | 3.69
TVAGKHQDLKYILPEIMASVLNGK [S13L] | 2.49
TVAGKHQDLKYIFPEIMASVLNGK [S13F] | 2.39
TVAGKHQDLKYITPEIMASVLNGK [S13T] | 3.15
TVAGKHQDLKYIAPEIMASVLNGK [S13A] | 3.4
TVAGKHQDLKYISPEIMASYLNGK [V20Y] | 2.72
TVAGKHQDLKYISPEIMASRLNGK [V20R] | 3.99
TVAGKHQDLKYISPEIMASNLNGK [V20N] | 3.38
TVAGKHQDLKYISPEIMASCLNGK [V20C] | 2.93
TVAGKHQDLKYISPEIMASELNGK [V20E] | 4.1
TVAGKHQDLKYISPEIMASDLNGK [V20D] | 4.35
TVAGKHQDLKYISPEIMASMLNGK [V20M] | 3.56
TVAGKHQDLKYISPEIMASVLNDK [G23D] | 3.57
TVAGKHQDLKYISPEIMASVLNKK [G23K] | 3.36
TVAGKHQDLKYISPEIMASVLNQK [G23Q] | 3.4
TVAGKHQDLKYISPEIMASVLNHK [G23H] | 2.9
TVAGKHQDLKYISPEIMASVLNWK [G23W] | 2.33
TVAGKHQDLKYISPEIMASVLNPK [G23P] | 2.56

Variant | protein stability index
TVAGKHQDLKYISPEIMASVLNAK [G23A] | 2.96
TVAGKHQDLKYISPEIMASVLNSK [G23S] | 3.01
TVAGKHQDLKYISVEIMASVLNGK [P14V] | 2.7
TVAGKHQDLKYISLEIMASVLNGK [P14L] | 2.4
TVAGKHQDLKYISNEIMASVLNGK [P14N] | 3.29
TVAGKHQDLKYISGEIMASVLNGK [P14G] | 3.14
TVAGKHQDLKYISYEIMASVLNGK [P14Y] | 2.79
TVAGKHQDLKYISWEIMASVLNGK [P14W] | 2.13
TVAGKHQDLKYISKEIMASVLNGK [P14K] | 2.96
TVAGKHQDLKYISAEIMASVLNGK [P14A] | 2.41
TVAGKHQDLKYISTEIMASVLNGK [P14T] | 2.55
TVAGKHQDLKYISHEIMASVLNGK [P14H] | 2.19
TVAGKHQDLKYISDEIMASVLNGK [P14D] | 3.4
TVAGKHQDLKYISIEIMASVLNGK [P14I] | 2.76
TVAGKHQDLKYTSPEIMASVLNGK [I12T] | 3.76
TVAGKHQDLKYHSPEIMASVLNGK [I12H] | 3.29
TVAGKHQDLKYASPEIMASVLNGK [I12A] | 3.49
TVAGKHQDLKYESPEIMASVLNGK [I12E] | 3.83
TVAGKHQDLKYDSPEIMASVLNGK [I12D] | 4.16
MVAGKHQDLKYISPEIMASVLNGK [T1M] | 2.34
PVAGKHQDLKYISPEIMASVLNGK [T1P] | 3.34
WVAGKHQDLKYISPEIMASVLNGK [T1W] | 2.06
